Laboratory results as given in the supplement of paper PMC9112550, “Optimization of the antimicrobial peptide Bac7 by deep mutational scanning” (BMC Biology, 2022).

Test system: Escherichia coli TOP10
Test: shrunken log2 fold change of peptide-encoding DNA abundance (4.5 h post-induction vs induction); higher = less antimicrobial activity (less host growth inhibition)
Conditions: time post-induction: 4.5 h; library: site-saturation at positions 5, 18, 19, 20
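Further: peptides expressed intracellularly from a pBAD plasmid library in pooled LB shake-flask culture, induced with 0.3% L-arabinose, DNA abundance read by NGS, three biological replicates, DESeq2 with apeglm shrinkage.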

| Sequence | shrunken log2 fold change |
| --- | --- |
| RRIRFRPPRLPRPRPRPNGNPRP | -0.377 |
| RRIRNRPPRLPRPRPRPTVIPRP | 0.0591 |
| RRIRIRPPRLPRPRPRPKISPRP | -0.3 |
| RRIRSRPPRLPRPRPRPVPKPRP | 0.232 |
| RRIRRRPPRLPRPRPRPTIFPRP | 0.149 |
| RRIRARPPRLPRPRPRPKHYPRP | -0.277 |
| RRIRNRPPRLPRPRPRPQMHPRP | -0.108 |
| RRIRERPPRLPRPRPRPQGLPRP | -0.141 |
| RRIRNRPPRLPRPRPRPCIGPRP | 0.00845 |
| RRIRKRPPRLPRPRPRPAIVPRP | 0.0885 |
| RRIRWRPPRLPRPRPRPPAEPRP | 2.93 |
| RRIRNRPPRLPRPRPRPTQQPRP | 0.244 |
| RRIRRRPPRLPRPRPRPTEHPRP | 0.0963 |
| RRIRCRPPRLPRPRPRPTQCPRP | 0.0468 |
| RRIRIRPPRLPRPRPRPQMIPRP | -0.241 |
| RRIRERPPRLPRPRPRPVPHPRP | -0.0329 |
| RRIRVRPPRLPRPRPRPDWQPRP | 0.0968 |
| RRIRERPPRLPRPRPRPVYYPRP | 0.0224 |
| RRIRRRPPRLPRPRPRPEFMPRP | 0.377 |
| RRIRARPPRLPRPRPRPAETPRP | 0.398 |
| RRIRIRPPRLPRPRPRPSDVPRP | -0.838 |
| RRIRDRPPRLPRPRPRPPEWPRP | 0.557 |
| RRIRHRPPRLPRPRPRPDKWPRP | -0.395 |
| RRIRFRPPRLPRPRPRPTLRPRP | 0.0831 |
| RRIRTRPPRLPRPRPRPKTLPRP | 0.0791 |

| Sequence | shrunken log2 fold change |
| --- | --- |
| RRIRHRPPRLPRPRPRPVWKPRP | -0.00992 |
| RRIRKRPPRLPRPRPRPKGAPRP | 0.217 |
| RRIRCRPPRLPRPRPRPDPTPRP | 0.0668 |
| RRIRNRPPRLPRPRPRPFTAPRP | 0.613 |
| RRIRQRPPRLPRPRPRPPDWPRP | 0.34 |
| RRIRVRPPRLPRPRPRPQRMPRP | 0.0511 |
| RRIRTRPPRLPRPRPRPDCGPRP | 0.759 |
| RRIRPRPPRLPRPRPRPQFQPRP | -0.192 |
| RRIRNRPPRLPRPRPRPVEFPRP | -0.00441 |
| RRIRPRPPRLPRPRPRPMAEPRP | 0.106 |
| RRIRYRPPRLPRPRPRPAGHPRP | -0.0387 |
| RRIRCRPPRLPRPRPRPSDMPRP | -0.415 |
| RRIRERPPRLPRPRPRPSLQPRP | 0.175 |
| RRIRFRPPRLPRPRPRPKHCPRP | -0.0918 |
| RRIRERPPRLPRPRPRPIPNPRP | -0.135 |
| RRIRCRPPRLPRPRPRPRYRPRP | -0.176 |
| RRIRIRPPRLPRPRPRPCDCPRP | -0.0657 |
| RRIRSRPPRLPRPRPRPVTWPRP | 0.0066 |
| RRIRYRPPRLPRPRPRPPMRPRP | 0.317 |
| RRIRGRPPRLPRPRPRPYENPRP | -0.0711 |
| RRIRGRPPRLPRPRPRPGCCPRP | 1.2 |
| RRIRKRPPRLPRPRPRPQAAPRP | 0.451 |
| RRIRTRPPRLPRPRPRPKEVPRP | -0.0117 |
| RRIRKRPPRLPRPRPRPHHKPRP | -0.176 |
| RRIRGRPPRLPRPRPRPCNYPRP | -0.11 |

| Sequence | shrunken log2 fold change |
| --- | --- |
| RRIRQRPPRLPRPRPRPPAGPRP | 0.866 |
| RRIRKRPPRLPRPRPRPTRIPRP | 0.312 |
| RRIRFRPPRLPRPRPRPLSFPRP | 0.675 |
| RRIRMRPPRLPRPRPRPSLNPRP | -0.0544 |
| RRIRRRPPRLPRPRPRPHMCPRP | -0.0222 |
| RRIRERPPRLPRPRPRPYPWPRP | -0.706 |
| RRIRGRPPRLPRPRPRPSVNPRP | 0.2 |
| RRIRKRPPRLPRPRPRPPPRPRP | 1.32 |
| RRIRGRPPRLPRPRPRPISEPRP | 0.0792 |
| RRIRKRPPRLPRPRPRPMGAPRP | 0.414 |
| RRIRQRPPRLPRPRPRPHNFPRP | -0.154 |
| RRIRDRPPRLPRPRPRPELAPRP | 1.68 |
| RRIRIRPPRLPRPRPRPSYFPRP | -0.83 |
| RRIRARPPRLPRPRPRPISNPRP | -0.174 |
| RRIRGRPPRLPRPRPRPFEPPRP | 0.267 |
| RRIRLRPPRLPRPRPRPWKSPRP | 0.0457 |
| RRIRARPPRLPRPRPRPYYKPRP | -0.675 |
| RRIRIRPPRLPRPRPRPPCHPRP | -0.463 |
| RRIRVRPPRLPRPRPRPLQHPRP | -0.177 |
| RRIRQRPPRLPRPRPRPHWRPRP | -0.374 |
| RRIRWRPPRLPRPRPRPQQMPRP | -0.128 |
| RRIRLRPPRLPRPRPRPITCPRP | -0.513 |
| RRIRDRPPRLPRPRPRPHANPRP | 0.0766 |
| RRIRARPPRLPRPRPRPANYPRP | -0.122 |
| RRIRYRPPRLPRPRPRPINCPRP | -0.122 |

| Sequence | shrunken log2 fold change |
| --- | --- |
| RRIRYRPPRLPRPRPRPYTQPRP | -0.273 |
| RRIRARPPRLPRPRPRPYCYPRP | -0.227 |
| RRIRSRPPRLPRPRPRPDSMPRP | -0.339 |
| RRIRDRPPRLPRPRPRPAEVPRP | 0.46 |
| RRIRKRPPRLPRPRPRPEIAPRP | 2.48 |
| RRIRYRPPRLPRPRPRPRPCPRP | -0.117 |
| RRIRCRPPRLPRPRPRPWMQPRP | -0.0437 |
| RRIRGRPPRLPRPRPRPKNIPRP | -0.101 |
| RRIRMRPPRLPRPRPRPINCPRP | -0.0244 |
| RRIRMRPPRLPRPRPRPASGPRP | 0.652 |
| RRIRVRPPRLPRPRPRPCQNPRP | -0.293 |
| RRIRWRPPRLPRPRPRPPAIPRP | 0.178 |
| RRIRKRPPRLPRPRPRPMHSPRP | -0.0199 |
| RRIRERPPRLPRPRPRPTPKPRP | 0.525 |
| RRIRVRPPRLPRPRPRPYSFPRP | -0.594 |
| RRIRRRPPRLPRPRPRPELHPRP | 0.793 |
| RRIRWRPPRLPRPRPRPGILPRP | 0.0649 |
| RRIRDRPPRLPRPRPRPNWHPRP | 0.144 |
| RRIRRRPPRLPRPRPRPRNKPRP | 0.0888 |
| RRIRHRPPRLPRPRPRPLAPPRP | 0.196 |
| RRIRFRPPRLPRPRPRPMCYPRP | -0.416 |
| RRIRRRPPRLPRPRPRPEGGPRP | 0.103 |
| RRIRCRPPRLPRPRPRPGRDPRP | 0.18 |
| RRIRKRPPRLPRPRPRPYQGPRP | -0.231 |
| RRIRSRPPRLPRPRPRPWKLPRP | -0.221 |

| Sequence | shrunken log2 fold change |
| --- | --- |
| RRIRNRPPRLPRPRPRPEYQPRP | 0.00318 |
| RRIRARPPRLPRPRPRPENGPRP | -0.0341 |
| RRIRNRPPRLPRPRPRPMTTPRP | -0.174 |
| RRIRKRPPRLPRPRPRPECFPRP | 0.7 |
| RRIRVRPPRLPRPRPRPGFKPRP | -0.0945 |
| RRIRPRPPRLPRPRPRPCIIPRP | -0.438 |
| RRIRSRPPRLPRPRPRPKEPPRP | -0.0411 |
| RRIRWRPPRLPRPRPRPTWGPRP | 0.356 |
| RRIRQRPPRLPRPRPRPLDFPRP | -0.0491 |
| RRIRKRPPRLPRPRPRPFNIPRP | 0.186 |
| RRIRSRPPRLPRPRPRPKDTPRP | -0.145 |
| RRIRHRPPRLPRPRPRPYHGPRP | -0.0161 |
| RRIRCRPPRLPRPRPRPRRCPRP | 0.42 |
| RRIRCRPPRLPRPRPRPQPCPRP | 0.0038 |
| RRIRARPPRLPRPRPRPPPAPRP | 1.25 |
| RRIRSRPPRLPRPRPRPHKPPRP | -0.507 |
| RRIRPRPPRLPRPRPRPNVKPRP | -0.475 |
| RRIRHRPPRLPRPRPRPTMIPRP | -0.112 |
| RRIRPRPPRLPRPRPRPEDVPRP | -0.0168 |
| RRIRQRPPRLPRPRPRPGVTPRP | 0.0644 |
| RRIRHRPPRLPRPRPRPIPWPRP | 0.0217 |
| RRIRIRPPRLPRPRPRPQWAPRP | 0.0405 |
| RRIRMRPPRLPRPRPRPCQMPRP | 0.00911 |
| RRIRSRPPRLPRPRPRPQTYPRP | -0.16 |
| RRIRCRPPRLPRPRPRPHHLPRP | -0.808 |

| Sequence | shrunken log2 fold change |
| --- | --- |
| RRIRFRPPRLPRPRPRPLNRPRP | -0.196 |
| RRIRQRPPRLPRPRPRPQRHPRP | 0.0218 |
| RRIRERPPRLPRPRPRPLQYPRP | -0.286 |
| RRIRKRPPRLPRPRPRPTHMPRP | 0.37 |
| RRIRHRPPRLPRPRPRPPGYPRP | 0.0632 |
| RRIRKRPPRLPRPRPRPTWDPRP | 0.289 |
| RRIRQRPPRLPRPRPRPATFPRP | 0.157 |
| RRIRYRPPRLPRPRPRPLMCPRP | -0.632 |
| RRIRWRPPRLPRPRPRPWHEPRP | 0.356 |
| RRIRARPPRLPRPRPRPGQWPRP | 0.466 |
| RRIRDRPPRLPRPRPRPGKGPRP | 0.0189 |
| RRIRIRPPRLPRPRPRPWYEPRP | -0.0153 |
| RRIRFRPPRLPRPRPRPFIGPRP | -0.362 |
| RRIRLRPPRLPRPRPRPWEKPRP | 0.0916 |
| RRIRWRPPRLPRPRPRPWWIPRP | 0.109 |
| RRIRCRPPRLPRPRPRPHTTPRP | -0.716 |
| RRIRKRPPRLPRPRPRPKGMPRP | -0.00227 |
| RRIRQRPPRLPRPRPRPQAGPRP | -0.158 |
| RRIRQRPPRLPRPRPRPSCKPRP | -0.259 |
| RRIRKRPPRLPRPRPRPLAEPRP | 1.11 |
| RRIRCRPPRLPRPRPRPFETPRP | -0.0151 |
| RRIRARPPRLPRPRPRPANWPRP | 0.215 |
| RRIRERPPRLPRPRPRPGMKPRP | 0.0657 |
| RRIRDRPPRLPRPRPRPDHWPRP | 0.0704 |
| RRIRYRPPRLPRPRPRPSTDPRP | -0.011 |
